Experimental data published in patent US20100129369A1 (Eli Lilly, published 2010).

Columns and labels:
human c-Met [1] = target: T1, human c-Met (human, UniProt P08581 25-1390); test: cell-based or functional assay
T1 sequence (P08581 25-1390): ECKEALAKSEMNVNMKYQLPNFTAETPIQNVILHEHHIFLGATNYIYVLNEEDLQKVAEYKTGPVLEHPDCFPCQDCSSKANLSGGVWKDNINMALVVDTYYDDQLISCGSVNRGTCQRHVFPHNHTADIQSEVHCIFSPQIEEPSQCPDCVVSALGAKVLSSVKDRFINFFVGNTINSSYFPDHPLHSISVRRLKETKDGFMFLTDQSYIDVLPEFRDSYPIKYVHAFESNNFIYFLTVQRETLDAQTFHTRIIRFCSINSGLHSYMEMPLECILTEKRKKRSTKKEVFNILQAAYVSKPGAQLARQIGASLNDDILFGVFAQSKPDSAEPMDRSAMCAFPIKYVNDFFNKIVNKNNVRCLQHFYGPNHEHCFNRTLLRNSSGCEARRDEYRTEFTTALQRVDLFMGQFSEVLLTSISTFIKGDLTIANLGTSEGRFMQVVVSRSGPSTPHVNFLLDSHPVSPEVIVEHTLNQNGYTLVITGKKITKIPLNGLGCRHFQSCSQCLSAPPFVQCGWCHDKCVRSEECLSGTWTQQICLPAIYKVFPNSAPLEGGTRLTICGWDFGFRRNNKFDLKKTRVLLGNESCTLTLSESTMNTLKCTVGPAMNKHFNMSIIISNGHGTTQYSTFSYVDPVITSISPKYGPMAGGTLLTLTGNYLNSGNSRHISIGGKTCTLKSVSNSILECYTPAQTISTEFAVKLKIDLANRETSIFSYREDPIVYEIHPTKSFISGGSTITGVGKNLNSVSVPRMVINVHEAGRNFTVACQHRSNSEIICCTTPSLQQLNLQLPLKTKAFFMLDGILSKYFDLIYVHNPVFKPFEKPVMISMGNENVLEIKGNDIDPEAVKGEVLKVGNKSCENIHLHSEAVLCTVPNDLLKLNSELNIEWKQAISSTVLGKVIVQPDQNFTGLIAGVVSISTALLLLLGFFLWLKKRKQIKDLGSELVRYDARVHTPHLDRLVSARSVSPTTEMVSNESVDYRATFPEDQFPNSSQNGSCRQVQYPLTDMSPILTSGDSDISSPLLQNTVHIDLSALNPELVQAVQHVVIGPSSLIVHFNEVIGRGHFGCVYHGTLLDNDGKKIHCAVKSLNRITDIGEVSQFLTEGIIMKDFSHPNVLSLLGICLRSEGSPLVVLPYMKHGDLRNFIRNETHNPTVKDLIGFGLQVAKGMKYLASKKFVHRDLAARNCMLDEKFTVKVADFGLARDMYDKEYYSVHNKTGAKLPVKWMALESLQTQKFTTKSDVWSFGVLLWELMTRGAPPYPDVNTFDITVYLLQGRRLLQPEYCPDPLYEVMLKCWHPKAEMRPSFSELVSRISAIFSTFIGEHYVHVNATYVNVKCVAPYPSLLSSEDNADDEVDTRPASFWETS

human c-Met [2] = target: T1, human c-Met; test: cell-based or functional assay; remark: listed apart in the source
human c-Met [3] = target: T1, human c-Met; test: cell-based or functional assay; remark: listed apart in the source
human c-Met [4] = target: T1, human c-Met; test: cell-based or functional assay; remark: listed apart in the source
human c-Met ECD-Fc-Flis [5] = target: T2, human c-Met ECD-Fc-Flis (human); test: HGF-blocking ELISA: HGF signal on coated c-Met ECD-Fc-Flis; Ab 7812.50 ng/mL
T2 construct: c-Met ECD fused to Fc with flag- and His-tag at the C-terminus; also called human c-Met extracellular domain (ECD)-Fc-Flis fusion; human c-Met-Flis-Fc ECD
Protocol: (§1) Wells of 96-well EIA/RIA high binding plates (Costar, #2592) are coated with 100 μL of human c-Met ECD-Fc-Flis (SEQ ID NO:72) (2 μg/mL) in Dulbecco's phosphate buffered saline (DPBS) overnight at room temperature; washed four times with wash buffer (Tris-buffered saline, pH 8.0, with 0.05% (v/v) polysorbate 20 (TWEEN®-20) (TBS-T) (BioFX Labs, # WSHW-1000-01) in a plate washer; blocked by adding 300 μL of blocking buffer (TBS-T plus 1% (w/v) bovine serum albumin (BSA) (Jackson Immuno, #001-000-162); and incubating for 60 min. at 37° C. Blocking buffer is then removed from the wells and 50 μL of antibodies in blocking buffer at final concentrations as indicated in Table 7 are added into each well, respectively. […] The plates with c-Met antibodies are incubated for 90 min. at 37° C. […] The wells are then washed four times with TBS-T in a plate washer. […] The plates are incubated for 90 min. at room temperature. The wells are again washed four times with TBS-T in a plate washer. 100 μL of a 1:200 dilution of streptavidin-horseradish peroxidase (HRP) (R&D Systems, DY998) in blocking buffer are added to each well. The plates are incubated for 30 min. at room temperature. The wells are washed four times with TBS-T in a plate washer. 100 μL/well of substrate solution (BioFx, #TMBW-1000-01) are then added, and the plates are incubated for 10 min. at room temperature. To stop the reaction, 100 μL/well of stop solution (BioFx, # LSTP-1000-01) are added. The samples are read at a wavelength of 450-570 nm on a microplate reader (Spectra, MAX 190) and no background is subtracted.

human c-Met ECD-Fc-Flis [6] = target: T2, human c-Met ECD-Fc-Flis; test: HGF-blocking ELISA: HGF signal on coated c-Met ECD-Fc-Flis; Ab 488.28 ng/mL
Protocol: as §1

human c-Met ECD-Fc-Flis [7] = target: T2, human c-Met ECD-Fc-Flis; test: HGF-blocking ELISA: HGF signal on coated c-Met ECD-Fc-Flis; Ab 31250.00 ng/mL
Protocol: as §1

human c-Met ECD-Fc-Flis [8] = target: T2, human c-Met ECD-Fc-Flis; test: HGF-blocking ELISA: HGF signal on coated c-Met ECD-Fc-Flis; Ab 1953.13 ng/mL
Protocol: as §1

human c-Met [9] = target: T3, human c-Met (human, UniProt P08581 25-1390); test: cell-based or functional assay; remark: listed apart in the source
T3 sequence (P08581 25-1390): as above

human c-Met ECD-Fc-Flis [10] = target: T2, human c-Met ECD-Fc-Flis; test: HGF-blocking ELISA: HGF signal on coated c-Met ECD-Fc-Flis; Ab 0.00 ng/mL (HGF only)
Protocol: as §1

human c-Met ECD-Fc-Flis [11] = target: T2, human c-Met ECD-Fc-Flis; test: HGF-blocking ELISA: HGF signal on coated c-Met ECD-Fc-Flis; Ab 0.48 ng/mL
Protocol: as §1

human c-Met ECD-Fc-Flis [12] = target: T2, human c-Met ECD-Fc-Flis; test: HGF-blocking ELISA: HGF signal on coated c-Met ECD-Fc-Flis; Ab 122.07 ng/mL
Protocol: as §1

human c-Met [13] = target: T3, human c-Met; test: cell-based or functional assay; remark: listed apart in the source
human c-Met [14] = target: T3, human c-Met; test: cell-based or functional assay; remark: listed apart in the source
human c-Met ECD-Fc-Flis [15] = target: T2, human c-Met ECD-Fc-Flis; test: HGF-blocking ELISA: HGF signal on coated c-Met ECD-Fc-Flis; Ab 30.52 ng/mL
Protocol: as §1

human c-Met ECD-Fc-Flis [16] = target: T2, human c-Met ECD-Fc-Flis; test: HGF-blocking ELISA: HGF signal on coated c-Met ECD-Fc-Flis; Ab 125000.00 ng/mL
Protocol: as §1

human c-Met ECD-Fc-Flis [17] = target: T2, human c-Met ECD-Fc-Flis; test: HGF-blocking ELISA: HGF signal on coated c-Met ECD-Fc-Flis; Ab 7.63 ng/mL
Protocol: as §1

human c-Met ECD-Fc-Flis [18] = target: T2, human c-Met ECD-Fc-Flis; test: HGF-blocking ELISA: HGF signal on coated c-Met ECD-Fc-Flis; Ab 1.91 ng/mL
Protocol: as §1

T2 sequence (chain, as listed by the source): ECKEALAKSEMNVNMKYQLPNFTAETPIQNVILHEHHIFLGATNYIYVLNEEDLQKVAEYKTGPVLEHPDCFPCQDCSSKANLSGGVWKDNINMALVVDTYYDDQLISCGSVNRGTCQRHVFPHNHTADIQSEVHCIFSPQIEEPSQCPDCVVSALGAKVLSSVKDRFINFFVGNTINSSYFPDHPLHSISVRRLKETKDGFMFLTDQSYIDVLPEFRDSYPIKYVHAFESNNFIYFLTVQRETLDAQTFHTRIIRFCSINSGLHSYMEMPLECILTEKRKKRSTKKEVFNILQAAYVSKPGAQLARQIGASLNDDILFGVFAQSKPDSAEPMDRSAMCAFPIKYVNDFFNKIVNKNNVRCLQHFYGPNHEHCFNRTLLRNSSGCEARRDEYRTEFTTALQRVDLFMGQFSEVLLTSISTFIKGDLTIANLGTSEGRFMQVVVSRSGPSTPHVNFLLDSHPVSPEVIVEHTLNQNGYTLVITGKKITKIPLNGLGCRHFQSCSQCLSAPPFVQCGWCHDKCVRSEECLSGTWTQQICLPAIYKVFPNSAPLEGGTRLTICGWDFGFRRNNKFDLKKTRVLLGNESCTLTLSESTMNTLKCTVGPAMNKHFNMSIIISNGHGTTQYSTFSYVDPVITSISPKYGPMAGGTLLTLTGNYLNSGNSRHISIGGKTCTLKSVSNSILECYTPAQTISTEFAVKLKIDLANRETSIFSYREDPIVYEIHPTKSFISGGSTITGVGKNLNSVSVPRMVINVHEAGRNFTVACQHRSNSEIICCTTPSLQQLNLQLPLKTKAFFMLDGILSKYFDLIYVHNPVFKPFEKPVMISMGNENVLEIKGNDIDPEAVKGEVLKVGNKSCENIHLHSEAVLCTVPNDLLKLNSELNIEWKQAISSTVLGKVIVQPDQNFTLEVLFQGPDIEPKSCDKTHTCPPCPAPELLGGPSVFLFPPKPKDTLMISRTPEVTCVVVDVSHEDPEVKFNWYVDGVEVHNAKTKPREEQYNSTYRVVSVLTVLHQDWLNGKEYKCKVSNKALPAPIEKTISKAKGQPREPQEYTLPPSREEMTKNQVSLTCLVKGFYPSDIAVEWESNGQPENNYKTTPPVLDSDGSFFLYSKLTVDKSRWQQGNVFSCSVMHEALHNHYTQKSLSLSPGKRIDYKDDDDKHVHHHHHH

B1: D11-8B8 (antibody, human IgG2, kappa, V domains shown)
VH: QVQLVQSGAEVKKPGSSVKVSCKASGYTFTSRYIHWVRQAPGQGLEWMGWIYPVTGDTYYIEKFKGRVTITADKSTSTAYMELSSLRSEDTAVYYCARGYGAFFYWGQGTLVTVSS
VL: EIVLTQSPGTLSLSPGERATLSCSVSSSISSTNLHWYQQKPGQAPRLLIYGTSYLASGIPDRFSGSGSGTDFTLTISRLEPEDFAVYYCQQWSSYPYSFGQGTKLEIKR
Human c-Met [1]
  Percent of DU145 Cells in Colonies (scatter assay), antibody 20 ug/mL: 25.6%
Human c-Met [2]
  Staurosporine-Induced Apoptosis in Caki-1 Cells, Average A450 nm, antibody dose 3 ng/mL: 1.02 A450 nm
  Staurosporine-Induced Apoptosis in Caki-1 Cells, Average A450 nm, antibody dose 30 ng/mL: 0.91 A450 nm
  Staurosporine-Induced Apoptosis in Caki-1 Cells, Average A450 nm, antibody dose 300 ng/mL: 0.81 A450 nm
  Staurosporine-Induced Apoptosis in Caki-1 Cells, Average A450 nm, antibody dose 3000 ng/mL: 0.91 A450 nm
  Staurosporine-Induced Apoptosis in Caki-1 Cells, Average A450 nm, antibody dose 30000 ng/mL: 0.87 A450 nm
Human c-Met [3]
  3H-Thymidine Incorporation in Caki-1 Cells in the Absence of HGF (AVG CPM), antibody dose 0.1 ng/mL: 15300 CPM
  3H-Thymidine Incorporation in Caki-1 Cells in the Absence of HGF (AVG CPM), antibody dose 0.4 ng/mL: 14400 CPM
  3H-Thymidine Incorporation in Caki-1 Cells in the Absence of HGF (AVG CPM), antibody dose 2.6 ng/mL: 14100 CPM
  3H-Thymidine Incorporation in Caki-1 Cells in the Absence of HGF (AVG CPM), antibody dose 15.4 ng/mL: 13500 CPM
  3H-Thymidine Incorporation in Caki-1 Cells in the Absence of HGF (AVG CPM), antibody dose 92.6 ng/mL: 13700 CPM
  3H-Thymidine Incorporation in Caki-1 Cells in the Absence of HGF (AVG CPM), antibody dose 555.6 ng/mL: 14000 CPM
  3H-Thymidine Incorporation in Caki-1 Cells in the Absence of HGF (AVG CPM), antibody dose 3333.3 ng/mL: 15700 CPM
  3H-Thymidine Incorporation in Caki-1 Cells in the Absence of HGF (AVG CPM), antibody dose 20000.0 ng/mL: 15900 CPM
Human c-Met [4]
  3H-Thymidine Incorporation in Primary Human Hepatocytes in the Absence of HGF (average), dose 0.0032 ug/mL: 611
  3H-Thymidine Incorporation in Primary Human Hepatocytes in the Absence of HGF (average), dose 0.016 ug/mL: 715
  3H-Thymidine Incorporation in Primary Human Hepatocytes in the Absence of HGF (average), dose 0.08 ug/mL: 1120
  3H-Thymidine Incorporation in Primary Human Hepatocytes in the Absence of HGF (average), dose 0.4 ug/mL: 1230
  3H-Thymidine Incorporation in Primary Human Hepatocytes in the Absence of HGF (average), dose 2 ug/mL: 1430
  3H-Thymidine Incorporation in Primary Human Hepatocytes in the Absence of HGF (average), dose 10 ug/mL: 1700

B2: C8-co-16 (antibody, human IgG2, kappa, V domains shown)
VH: QVQLVQSGAEVKKPGASVKVSCKASGYTFTDYYMHWVRQAPGQGLEWMGRVNPYRGSTTYNQKFEGRVTMTTDTSTSTAYMELRSLRSDDTAVYYCARANILDYWGQGTTVTVSS
VL: DIQMTQSPSSLSASVGDRVTITCSVSSSVRSIYLHWYQQKPGKAPKLLIYSTSNLASGVPSRFSGSGSGTDFTLTISSLQPEDFATYYCQVYRGYPLTFGGGTKVEIKR
notes: Named IgG4 kappa; also called C8-co-16 IgG4
Human c-Met ECD-Fc-Flis [5]
  AVG A450 nm: 0.57 A450 nm
Human c-Met ECD-Fc-Flis [6]
  AVG A450 nm: 0.7 A450 nm
Human c-Met ECD-Fc-Flis [7]
  AVG A450 nm: 0.56 A450 nm
Human c-Met ECD-Fc-Flis [8]
  AVG A450 nm: 0.6 A450 nm
Human c-Met [9]
  AVG CPM, 3H-thymidine incorporation in MKN45 cells, Ab 0.0 ng/mL (no antibody): 51500 CPM
  AVG CPM, 3H-thymidine incorporation in MKN45 cells, Ab 0.1 ng/mL: 45700 CPM
  AVG CPM, 3H-thymidine incorporation in MKN45 cells, Ab 0.4 ng/mL: 47500 CPM
  AVG CPM, 3H-thymidine incorporation in MKN45 cells, Ab 2.6 ng/mL: 53500 CPM
  AVG CPM, 3H-thymidine incorporation in MKN45 cells, Ab 15.4 ng/mL: 22500 CPM
  AVG CPM, 3H-thymidine incorporation in MKN45 cells, Ab 92.6 ng/mL: 12400 CPM
  AVG CPM, 3H-thymidine incorporation in MKN45 cells, Ab 555.6 ng/mL: 13500 CPM
  AVG CPM, 3H-thymidine incorporation in MKN45 cells, Ab 3333.3 ng/mL: 13000 CPM
  AVG CPM, 3H-thymidine incorporation in MKN45 cells, Ab 20000.0 ng/mL: 11700 CPM
Human c-Met ECD-Fc-Flis [10]
  AVG A450 nm: 2.61 A450 nm
Human c-Met ECD-Fc-Flis [11]
  AVG A450 nm: 2.05 A450 nm
Human c-Met ECD-Fc-Flis [12]
  AVG A450 nm: 1.3 A450 nm
Human c-Met [13]
  % inhibition of HGF stimulated phospho-Met (ELISA, HCT116 cells), Ab 0.0032 µg/mL: -10.7%
  % inhibition of HGF stimulated phospho-Met (ELISA, HCT116 cells), Ab 0.016 µg/mL: -2.89%
  % inhibition of HGF stimulated phospho-Met (ELISA, HCT116 cells), Ab 0.08 µg/mL: 9.77%
  % inhibition of HGF stimulated phospho-Met (ELISA, HCT116 cells), Ab 0.4 µg/mL: 45.1%
  % inhibition of HGF stimulated phospho-Met (ELISA, HCT116 cells), Ab 2 µg/mL: 59%
  % inhibition of HGF stimulated phospho-Met (ELISA, HCT116 cells), Ab 10 µg/mL: 65.4%
Human c-Met [14]
  Mean Fluorescence (c-Met left on the surface of MKN45 cells, FACS), Ab 5.00 ug/mL: 56.2
Human c-Met ECD-Fc-Flis [15]
  AVG A450 nm: 2.08 A450 nm
Human c-Met ECD-Fc-Flis [16]
  AVG A450 nm: 0.38 A450 nm
Human c-Met ECD-Fc-Flis [17]
  AVG A450 nm: 2.2 A450 nm
Human c-Met ECD-Fc-Flis [18]
  AVG A450 nm: 2.18 A450 nm

B3: C8-co-16 (antibody, human IgG2, kappa, V domains shown)
VH: QVQLVQSGAEVKKPGASVKVSCKASGYTFTDYYMHWVRQAPGQGLEWMGRVNPYRGSTTYNQKFEGRVTMTTDTSTSTAYMELRSLRSDDTAVYYCARANILDYWGQGTTVTVSS
VL: DIQMTQSPSSLSASVGDRVTITCSVSSSVRSIYLHWYQQKPGKAPKLLIYSTSNLASGVPSRFSGSGSGTDFTLTISSLQPEDFATYYCQVYRGYPLTFGGGTKVEIKR
Human c-Met [1]
  Percent of DU145 Cells in Colonies (scatter assay), antibody 20 ug/mL: 23.7%
Human c-Met [3]
  3H-Thymidine Incorporation in Caki-1 Cells in the Absence of HGF (AVG CPM), antibody dose 0.1 ng/mL: 15600 CPM
  3H-Thymidine Incorporation in Caki-1 Cells in the Absence of HGF (AVG CPM), antibody dose 0.4 ng/mL: 14100 CPM
  3H-Thymidine Incorporation in Caki-1 Cells in the Absence of HGF (AVG CPM), antibody dose 2.6 ng/mL: 13700 CPM
  3H-Thymidine Incorporation in Caki-1 Cells in the Absence of HGF (AVG CPM), antibody dose 15.4 ng/mL: 12100 CPM
  3H-Thymidine Incorporation in Caki-1 Cells in the Absence of HGF (AVG CPM), antibody dose 92.6 ng/mL: 11600 CPM
  3H-Thymidine Incorporation in Caki-1 Cells in the Absence of HGF (AVG CPM), antibody dose 555.6 ng/mL: 11400 CPM
  3H-Thymidine Incorporation in Caki-1 Cells in the Absence of HGF (AVG CPM), antibody dose 3333.3 ng/mL: 13800 CPM
  3H-Thymidine Incorporation in Caki-1 Cells in the Absence of HGF (AVG CPM), antibody dose 20000.0 ng/mL: 13100 CPM
Human c-Met [4]
  3H-Thymidine Incorporation in Primary Human Hepatocytes in the Absence of HGF (average), dose 0.0032 ug/mL: 829
  3H-Thymidine Incorporation in Primary Human Hepatocytes in the Absence of HGF (average), dose 0.016 ug/mL: 716
  3H-Thymidine Incorporation in Primary Human Hepatocytes in the Absence of HGF (average), dose 0.08 ug/mL: 767
  3H-Thymidine Incorporation in Primary Human Hepatocytes in the Absence of HGF (average), dose 0.4 ug/mL: 670
  3H-Thymidine Incorporation in Primary Human Hepatocytes in the Absence of HGF (average), dose 2 ug/mL: 822
  3H-Thymidine Incorporation in Primary Human Hepatocytes in the Absence of HGF (average), dose 10 ug/mL: 952
